The results in this text go back to publication PMC4795942 (Protein Engineering, Design and Selection, 2016).

This assay deals with biotinylated MmQSOX1Trx with a carboxy-terminal AviTag (Mus musculus, UniProt Q8BND5, biotin (on the AviTag)). Nature of the assay: flow cytometry on cells. Background: A flow cytometer gives signals particle by particle.

Substitutions are numbered along the chain they refer to. Names and notes keep the numbering of the source.

B1: scFv492.1 template c with H49S S50M Y52Q (top binder of the CDR L2 library) displayed on yeast (scFv, V domains shown)
VH: QVQLKQSGPGLVAPSQSLSITCTVSGFSLTGYGVNWVRQSPGKGLEWLGMIWGDGRTEYKSALKSRLSITKDNSKSQVFLKMNSLQTDDTARYFCASDSKDPGSFAYWGQGTLVTVSA
VL: DVVMTQTHKFMSTSVGDRVSITCKASQDVSTAVAWYQQKSGQSPKLLISMASQRYTGVPDRFTGSGSGTDFTFTISSVQAEDLAVYYCQQHYAIPLTFGAGTKLELK
On to B1, for which the binding result is given as “binds”.

B2: scFv492.1 S93A Y99S Y100K G101D S102P D58E T31G H49S S50M Y52Q (mutant d) displayed on yeast (scFv, V domains shown)
VH: B1 VH
VL: B1 VL with T31G
As for B2, the binding result is on record as “binds”.
